Experimental data taken from patent publication US6472178.

Key:
[1] = target: T1, rat CNTF receptor on rat superior cervical ganglia (SCG) neurons (rat, UniProt Q08406 23-342); assay: competition with 125I-rat CNTF on rat SCG neurons
T1 construct: whole, on cells; Native neurons; also called rat receptor
T1 sequence (looked up): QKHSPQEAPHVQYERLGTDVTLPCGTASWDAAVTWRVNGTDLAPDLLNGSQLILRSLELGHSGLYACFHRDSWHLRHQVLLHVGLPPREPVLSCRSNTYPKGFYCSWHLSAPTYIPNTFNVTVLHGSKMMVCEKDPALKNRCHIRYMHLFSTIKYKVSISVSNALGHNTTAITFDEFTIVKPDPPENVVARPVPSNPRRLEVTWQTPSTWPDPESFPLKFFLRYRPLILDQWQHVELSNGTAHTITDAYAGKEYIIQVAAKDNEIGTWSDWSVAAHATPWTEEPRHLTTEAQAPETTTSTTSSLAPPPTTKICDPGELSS
Method: Reactions were incubated for 45 min at 0° C. followed by 15 min at room temperature and terminated by the addition of […] of 0.2 M glycine solution. After 15 min, 0.2 ml PBS containing 0.08% gelatin was also added and the mixture was passed through a Superdex-75 column (Pharmacia) to separate the labelled monomeric CNTF from dimeric and other multimeric derivatives. Percentage of incorporation was typically 20%, as determined by thin layer chromatography and the specific activity was typically around 1,000 Ci/mmole. […] Growth medium consisted of Ham's nutrient mixture F12 with 10% heat-inactivated fetal bovine serum (Hyclone), nerve growth factor (NGF) (100 ng/ml), penicillin (50 U/ml) and streptomycin (50 µg/ml). Cultures were maintained at 37° C. in a humidified 95% air/5% CO_2 atmosphere. Ganglion non-neuronal cells were eliminated by treatment with araC (10 µM) on days 1 and 3 of culture. Cultures were fed 3 times/week and were routinely used for binding assays within 2 weeks.
Binding was performed directly on cell monolayers. Cells in culture wells were washed once with assay buffer consisting of phosphate buffered saline (PBS; pH 7.4), 0.1 mM bacitracin, 1 mM PMSF, 1 µg/ml leupeptin, and 1 mg/ml BSA. […] Non-specific binding was determined in the presence of 1,000-fold excess of unlabelled CNTF. […] Data were analyzed using the […] program (ISI, Philadelphia, Pa.).

[2] = target: T2, human CNTF receptor α-component on MG87/CNTFR fibroblasts (human, UniProt P26992 23-342); assay: competition with 125I-rat CNTF on MG87/CNTFR cells
T2 construct: whole, on cells; also called CNTFRα; MG87/huCNTFR
T2 sequence (looked up): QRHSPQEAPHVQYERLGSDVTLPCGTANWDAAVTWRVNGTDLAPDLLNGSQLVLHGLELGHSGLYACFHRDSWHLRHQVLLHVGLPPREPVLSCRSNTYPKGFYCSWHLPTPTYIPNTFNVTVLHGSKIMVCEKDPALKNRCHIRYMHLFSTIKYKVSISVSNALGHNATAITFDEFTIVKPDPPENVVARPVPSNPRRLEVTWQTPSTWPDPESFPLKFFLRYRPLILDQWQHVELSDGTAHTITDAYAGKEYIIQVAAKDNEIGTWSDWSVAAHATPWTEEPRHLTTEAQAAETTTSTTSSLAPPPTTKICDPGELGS

IC50 [1]: 0.28 nM | IC50 [2]: 2.8 nM
B1: recombinant rat CNTF (ciliary neurotrophic factor) (ligand)
chain: MAFAEQTPLTLHRRDLCSRSIWLARKIRSDLTALMESYVKHQGLNKNINLDSVDGVPVASTDRWSEMTEAELRQENLQAYRTFQGMLTKLLEDQRVHFTPTEGDFHQAIHTLMLQVSAFAYQLEELMVLLEQKIPENEADGMPATVGDGGLFEKKLWGLKVLQELSQWTVRSIHDLRVISSHQMGISALESHYGAKDKQM
notes: also called unlabelled rat CNTF
